# Measured values taken from US20150051136A1.
# How the values were obtained:
# [1] = target: HMGB1 (high mobility group box 1); experiment: cell-based or functional assay
# S100B [2] = experiment: cell-based or functional assay
# S100B [3] = experiment: BIAcore SPR, sRAGE amine-coupled to CM5 chip, S100B as analyte, steady state model
# [4] = target: HMGB1 (high mobility group box 1); experiment: HMGB1 ELISA (as in Liu et al. 2009)
# [5] = target: HMGB1 (high mobility group box 1); experiment: BIAcore SPR, sRAGE amine-coupled to CM5 chip, HMGB1 as analyte, 1:1 Langmuir model
# sRAGE^sf9 (human T7-sRAGE produced in baculovirus-infected sf9 insect cells), sequence (Q15109 23-340, tags or fused parts left off): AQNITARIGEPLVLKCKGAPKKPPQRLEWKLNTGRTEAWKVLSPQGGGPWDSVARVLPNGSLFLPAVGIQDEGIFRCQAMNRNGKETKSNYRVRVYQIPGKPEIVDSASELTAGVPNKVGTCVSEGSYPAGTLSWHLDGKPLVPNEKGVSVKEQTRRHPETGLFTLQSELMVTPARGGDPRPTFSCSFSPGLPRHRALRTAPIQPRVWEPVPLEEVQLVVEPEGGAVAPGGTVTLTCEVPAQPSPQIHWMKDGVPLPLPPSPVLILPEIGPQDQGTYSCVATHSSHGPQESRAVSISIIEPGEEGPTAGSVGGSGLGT
# sRAGE^CHO(desialylated), sequence (Q15109 other isoform, or with tags, fused parts or gaps): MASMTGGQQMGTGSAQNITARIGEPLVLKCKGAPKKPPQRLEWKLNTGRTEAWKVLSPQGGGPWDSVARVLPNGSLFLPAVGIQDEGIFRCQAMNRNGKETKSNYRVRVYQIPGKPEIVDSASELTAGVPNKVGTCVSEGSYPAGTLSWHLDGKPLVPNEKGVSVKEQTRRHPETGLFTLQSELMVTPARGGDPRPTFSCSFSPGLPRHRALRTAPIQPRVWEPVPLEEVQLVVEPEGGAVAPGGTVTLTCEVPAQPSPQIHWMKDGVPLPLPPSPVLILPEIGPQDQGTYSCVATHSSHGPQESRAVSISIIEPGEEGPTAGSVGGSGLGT
# sRAGE^CHO (human T7-Gly-Ser-RAGE (23-340) polypeptide produced in CHO-CD14 cells), sequence (Q15109 other isoform, or with tags, fused parts or gaps): as above
# HMGB1 (high mobility group box 1), sequence (P09429 whole entry): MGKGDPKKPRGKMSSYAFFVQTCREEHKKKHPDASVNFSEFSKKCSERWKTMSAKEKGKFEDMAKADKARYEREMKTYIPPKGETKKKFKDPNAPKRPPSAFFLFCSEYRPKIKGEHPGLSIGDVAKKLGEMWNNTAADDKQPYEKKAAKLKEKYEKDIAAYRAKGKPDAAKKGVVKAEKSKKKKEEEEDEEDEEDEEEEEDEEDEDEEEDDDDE
# S100B, sequence (D3DSN6 whole entry): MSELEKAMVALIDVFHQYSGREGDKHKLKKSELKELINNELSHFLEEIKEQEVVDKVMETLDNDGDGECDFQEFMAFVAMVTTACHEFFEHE
Substance,"inhibition of HMGB1-induced NF-κB activity (luciferase reporter, HEK293-RAGE cells; 100 nM ligand, 100 nM sRAGE) [1]","inhibition of s100B-induced NF-κB activity (luciferase reporter, HEK293-RAGE cells; 100 nM ligand, 100 nM sRAGE) (S100B [2])",Kd (S100B [3]),Kd [4],fold of the dissociation constant (Kd) against wild-type sRAGE [4],Kd [5]
sRAGE^sf9 (human T7-sRAGE produced in baculovirus-infected sf9 insect cells) (from UniProt Q15109 23-340) (receptor),19.7%,20.4%,32 nM,–,–,–
sRAGE^CHO(desialylated) (from UniProt Q15109 23-340) (receptor),25.8%,18%,25.3 nM,–,–,–
sRAGE^CHO(N25T/N81T) (from UniProt Q15109 26-340) (receptor),0.3%,–,–,521 nM,10 fold,–
sRAGE^CHO (human T7-Gly-Ser-RAGE (23-340) polypeptide produced in CHO-CD14 cells) (from UniProt Q15109 23-340) (receptor),58.6%,40.2%,90.5 nM,49.5 nM,–,13.3 nM
